Tests used:
[1] = target: Str-Ct.Samp1(1–180) (Chaetomium thermophilum); test: pull-down
[2] = target: Samp1-YFP (human) (UniProt Q5SNT2); test: cross-linking + co-IP

percent of total RanGTP bound in live cells [2]	Substance	fold binding, RanGTP against RanGDP [1]	percent of RanGTP pulled down at a 1:1 molar ratio [1]
	His6-Ran (from UniProt P62826 1-216) (natural protein)	1.8 fold	40%
1%	Ran (endogenous in tsBN2 and BHK-21 cells) (from UniProt A0A8C2MF66 1-216) (natural protein)		

— paper PMC5039005
